Test results taken from the supplement of paper PMC10065799, “High-throughput profiling of sequence recognition by tyrosine kinases and SH2 domains using bacterial peptide display” (eLife, 2023).

target: FGFR1 (UniProt P11362); assay: phosphorylation enrichment, bacterial display (enrichment ratio); higher = better substrate or ligand; peptides without Tyr show the background
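Further: 11-residue human phosphosite peptides and single-mutation variants displayed on the E. coli surface, counted by deep sequencing, each peptide's frequency after selection divided by its frequency in the unselected input library; frequency after pTyr selection over input frequency; kinase dosed for 20-30% of maximal phosphorylation in three min.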

FGFR1, sequence (P11362 whole entry, looked up): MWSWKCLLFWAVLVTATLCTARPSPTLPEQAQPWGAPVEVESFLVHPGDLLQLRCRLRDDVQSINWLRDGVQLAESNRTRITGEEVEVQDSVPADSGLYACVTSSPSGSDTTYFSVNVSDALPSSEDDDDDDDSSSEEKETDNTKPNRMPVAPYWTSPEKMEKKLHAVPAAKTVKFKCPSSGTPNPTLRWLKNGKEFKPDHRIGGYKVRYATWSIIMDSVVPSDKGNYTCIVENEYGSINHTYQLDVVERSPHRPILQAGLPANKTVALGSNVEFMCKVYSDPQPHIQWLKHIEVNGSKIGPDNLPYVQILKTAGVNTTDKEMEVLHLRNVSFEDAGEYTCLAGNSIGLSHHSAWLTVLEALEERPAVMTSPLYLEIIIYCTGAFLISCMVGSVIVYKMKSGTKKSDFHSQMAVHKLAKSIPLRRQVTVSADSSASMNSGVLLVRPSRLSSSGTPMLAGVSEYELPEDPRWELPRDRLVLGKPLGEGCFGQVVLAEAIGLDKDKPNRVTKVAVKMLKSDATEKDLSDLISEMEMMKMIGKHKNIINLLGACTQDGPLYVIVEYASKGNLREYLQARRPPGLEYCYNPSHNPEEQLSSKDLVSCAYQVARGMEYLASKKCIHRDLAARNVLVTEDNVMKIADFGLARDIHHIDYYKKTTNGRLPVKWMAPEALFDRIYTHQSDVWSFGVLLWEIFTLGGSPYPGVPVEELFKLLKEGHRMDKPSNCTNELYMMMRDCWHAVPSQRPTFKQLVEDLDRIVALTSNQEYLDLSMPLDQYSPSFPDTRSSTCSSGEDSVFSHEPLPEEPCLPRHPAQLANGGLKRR

Point of comparison: IGERTYGQVYK [CDK13_Y716_G714R], phosphorylation enrichment 0.381. Against it:
- IGKAGYTDKVV [ENO1_Y236] — higher, 0.456
- PFRSIYFSSPK [MPG_Y75_YF] — higher, 0.599
- LNPLFYSLRNK [OR5R1_Y290_I289F] — higher, 0.481
- LARDMDDKEYY [MET_Y1230_Y1230D] — higher, 0.867
- QKMADYSNKLY [PDPR_Y104] — higher, 0.436
- ATVLNYLPKCI [A2M_Y817] — higher, 0.519
- RPLVVYPWTQR [HBB_Y36_L32P] — higher, 0.473
- LIGRRYDDPEV [HSPA9_Y128] — higher, 0.643
- ENRKYYMDLKE [PURA_Y156] — higher, 0.474
- YPPDGYSRHCE [CTNND1_Y213_Y217C] — higher, 0.496
- AVSHRYDLGGL [QPRT_Y162_A158V] — lower, 0.347
- WPLKWYVPECI [ZAP70_Y506_A507V] — higher, 0.496
- PKEQRYSFLQN [GH1_Y68_K67R] — higher, 1.12
- KLLPEYPGVLS [DHFR2_Y163] — lower, 0.379
- PDKRIYQFTAA [SKAP2_Y197] — higher, 0.476
- RASQEYHIVKK [PDZD2_Y557_S552R] — higher, 0.881
- SLQAHYDTPRS [DOK7_Y405_R402Q] — lower, 0.352
- RLDRSYSYSYS [PEAR1_Y890] — higher, 0.594
- HFPFQCHRQLF [F12_Y53_Y53C_YF] — higher, 0.745
- TKGMIYGGGGG [PSME1_Y249] — higher, 0.457
- KLVQLYDVCTK [BTK_Y461_G462D] — higher, 0.58
- KDKLPYPFDDP [GPX2_Y125_YF] — higher, 0.567
- TGNPAYRSFSN [IL4R_Y497_A492T] — higher, 0.406
- HQPGEYIFHAE [FLT3_Y416] — higher, 0.819
- ENFDDYMKDVG [FABP4_Y20_E23D] — higher, 0.546
- PRARTYCFKQE [KLHDC9_Y175_S171R_YF] — higher, 0.395
- WAFNLYDINKD [KCNIP3_Y174] — higher, 0.541
- ALLVFYAATIA [SLC20A2_Y187_P184L] — higher, 0.445
- GMKIVYVFVKK [DNAI2_Y5_E2K_YF] — higher, 0.433
- GPSTPYTKSKR [SMARCC2_Y324] — lower, 0.363
- IVAEYYDNLPH [DEGS1_Y284_A280V] — higher, 9.37
- GLAELYEYQKK [CKAP5_Y1854_K1857Q] — higher, 0.61

target: FGFR3 (UniProt P22607); assay: as above
Sequence (P22607 whole entry, looked up): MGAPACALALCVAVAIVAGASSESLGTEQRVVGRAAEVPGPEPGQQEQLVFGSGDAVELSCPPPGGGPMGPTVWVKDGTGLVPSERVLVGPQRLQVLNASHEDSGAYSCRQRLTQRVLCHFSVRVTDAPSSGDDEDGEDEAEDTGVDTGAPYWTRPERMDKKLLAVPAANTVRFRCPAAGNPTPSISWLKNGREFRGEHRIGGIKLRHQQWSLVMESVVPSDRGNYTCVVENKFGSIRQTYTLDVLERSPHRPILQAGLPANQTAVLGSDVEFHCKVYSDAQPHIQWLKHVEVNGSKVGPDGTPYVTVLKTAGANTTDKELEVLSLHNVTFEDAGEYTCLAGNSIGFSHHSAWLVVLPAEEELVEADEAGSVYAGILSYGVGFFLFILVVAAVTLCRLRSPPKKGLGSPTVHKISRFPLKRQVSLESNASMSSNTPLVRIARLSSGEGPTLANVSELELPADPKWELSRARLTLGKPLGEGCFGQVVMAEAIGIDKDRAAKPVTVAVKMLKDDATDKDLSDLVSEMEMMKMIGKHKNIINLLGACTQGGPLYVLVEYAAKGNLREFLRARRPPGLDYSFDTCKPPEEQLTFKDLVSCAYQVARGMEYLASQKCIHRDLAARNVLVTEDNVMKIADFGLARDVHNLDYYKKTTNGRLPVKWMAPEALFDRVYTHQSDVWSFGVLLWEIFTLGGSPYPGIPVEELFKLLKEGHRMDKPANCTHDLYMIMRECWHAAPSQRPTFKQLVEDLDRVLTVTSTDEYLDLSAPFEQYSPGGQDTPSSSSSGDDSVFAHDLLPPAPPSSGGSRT

Point of comparison: RPLVVYPWTQR [HBB_Y36_L32P], phosphorylation enrichment 0.45. Against it:
- IGKAGYTDKVV [ENO1_Y236] — higher, 0.508
- PFRSIYFSSPK [MPG_Y75_YF] — higher, 0.809
- LNPLFYSLRNK [OR5R1_Y290_I289F] — higher, 0.737
- LARDMDDKEYY [MET_Y1230_Y1230D] — higher, 1.19
- QKMADYSNKLY [PDPR_Y104] — higher, 0.735
- ATVLNYLPKCI [A2M_Y817] — higher, 0.649
- LIGRRYDDPEV [HSPA9_Y128] — higher, 0.9
- IGERTYGQVYK [CDK13_Y716_G714R] — lower, 0.41
- ENRKYYMDLKE [PURA_Y156] — higher, 0.573
- YPPDGYSRHCE [CTNND1_Y213_Y217C] — higher, 0.568
- AVSHRYDLGGL [QPRT_Y162_A158V] — lower, 0.42
- WPLKWYVPECI [ZAP70_Y506_A507V] — higher, 0.804
- PKEQRYSFLQN [GH1_Y68_K67R] — higher, 0.617
- KLLPEYPGVLS [DHFR2_Y163] — higher, 0.564
- PDKRIYQFTAA [SKAP2_Y197] — higher, 0.497
- RASQEYHIVKK [PDZD2_Y557_S552R] — higher, 0.784
- SLQAHYDTPRS [DOK7_Y405_R402Q] — lower, 0.38
- RLDRSYSYSYS [PEAR1_Y890] — lower, 0.42
- HFPFQCHRQLF [F12_Y53_Y53C_YF] — higher, 1.4
- TKGMIYGGGGG [PSME1_Y249] — lower, 0.377
- KLVQLYDVCTK [BTK_Y461_G462D] — higher, 0.742
- KDKLPYPFDDP [GPX2_Y125_YF] — higher, 0.638
- TGNPAYRSFSN [IL4R_Y497_A492T] — higher, 0.457
- HQPGEYIFHAE [FLT3_Y416] — higher, 1.28
- ENFDDYMKDVG [FABP4_Y20_E23D] — higher, 0.764
- PRARTYCFKQE [KLHDC9_Y175_S171R_YF] — higher, 0.517
- WAFNLYDINKD [KCNIP3_Y174] — higher, 0.763
- ALLVFYAATIA [SLC20A2_Y187_P184L] — higher, 0.672
- GMKIVYVFVKK [DNAI2_Y5_E2K_YF] — higher, 0.706
- GPSTPYTKSKR [SMARCC2_Y324] — lower, 0.362
- IVAEYYDNLPH [DEGS1_Y284_A280V] — higher, 6.4
- GLAELYEYQKK [CKAP5_Y1854_K1857Q] — higher, 0.629

tested on: c-Abl (mouse); assay: as above

Point of comparison: ENFDDYMKDVG [FABP4_Y20_E23D], phosphorylation enrichment 1.13. Against it:
- IGKAGYTDKVV [ENO1_Y236] — lower, 0.481
- PFRSIYFSSPK [MPG_Y75_YF] — lower, 0.398
- LNPLFYSLRNK [OR5R1_Y290_I289F] — lower, 0.363
- LARDMDDKEYY [MET_Y1230_Y1230D] — higher, 1.2
- QKMADYSNKLY [PDPR_Y104] — lower, 0.555
- ATVLNYLPKCI [A2M_Y817] — lower, 0.714
- RPLVVYPWTQR [HBB_Y36_L32P] — lower, 0.509
- LIGRRYDDPEV [HSPA9_Y128] — higher, 1.25
- IGERTYGQVYK [CDK13_Y716_G714R] — lower, 0.536
- ENRKYYMDLKE [PURA_Y156] — lower, 0.588
- YPPDGYSRHCE [CTNND1_Y213_Y217C] — lower, 0.738
- AVSHRYDLGGL [QPRT_Y162_A158V] — lower, 0.379
- WPLKWYVPECI [ZAP70_Y506_A507V] — lower, 0.757
- PKEQRYSFLQN [GH1_Y68_K67R] — lower, 0.744
- KLLPEYPGVLS [DHFR2_Y163] — lower, 0.497
- PDKRIYQFTAA [SKAP2_Y197] — lower, 0.47
- RASQEYHIVKK [PDZD2_Y557_S552R] — lower, 0.841
- SLQAHYDTPRS [DOK7_Y405_R402Q] — higher, 3.19
- RLDRSYSYSYS [PEAR1_Y890] — lower, 0.359
- HFPFQCHRQLF [F12_Y53_Y53C_YF] — lower, 1.09
- TKGMIYGGGGG [PSME1_Y249] — lower, 0.613
- KLVQLYDVCTK [BTK_Y461_G462D] — higher, 1.25
- KDKLPYPFDDP [GPX2_Y125_YF] — lower, 0.581
- TGNPAYRSFSN [IL4R_Y497_A492T] — lower, 0.441
- HQPGEYIFHAE [FLT3_Y416] — lower, 1.11
- PRARTYCFKQE [KLHDC9_Y175_S171R_YF] — lower, 0.591
- WAFNLYDINKD [KCNIP3_Y174] — lower, 0.91
- ALLVFYAATIA [SLC20A2_Y187_P184L] — lower, 0.871
- GMKIVYVFVKK [DNAI2_Y5_E2K_YF] — lower, 0.863
- GPSTPYTKSKR [SMARCC2_Y324] — lower, 0.651
- IVAEYYDNLPH [DEGS1_Y284_A280V] — higher, 1.25
- GLAELYEYQKK [CKAP5_Y1854_K1857Q] — lower, 0.529

target: MERTK (UniProt Q12866); assay: as above
Sequence (Q12866 whole entry, looked up): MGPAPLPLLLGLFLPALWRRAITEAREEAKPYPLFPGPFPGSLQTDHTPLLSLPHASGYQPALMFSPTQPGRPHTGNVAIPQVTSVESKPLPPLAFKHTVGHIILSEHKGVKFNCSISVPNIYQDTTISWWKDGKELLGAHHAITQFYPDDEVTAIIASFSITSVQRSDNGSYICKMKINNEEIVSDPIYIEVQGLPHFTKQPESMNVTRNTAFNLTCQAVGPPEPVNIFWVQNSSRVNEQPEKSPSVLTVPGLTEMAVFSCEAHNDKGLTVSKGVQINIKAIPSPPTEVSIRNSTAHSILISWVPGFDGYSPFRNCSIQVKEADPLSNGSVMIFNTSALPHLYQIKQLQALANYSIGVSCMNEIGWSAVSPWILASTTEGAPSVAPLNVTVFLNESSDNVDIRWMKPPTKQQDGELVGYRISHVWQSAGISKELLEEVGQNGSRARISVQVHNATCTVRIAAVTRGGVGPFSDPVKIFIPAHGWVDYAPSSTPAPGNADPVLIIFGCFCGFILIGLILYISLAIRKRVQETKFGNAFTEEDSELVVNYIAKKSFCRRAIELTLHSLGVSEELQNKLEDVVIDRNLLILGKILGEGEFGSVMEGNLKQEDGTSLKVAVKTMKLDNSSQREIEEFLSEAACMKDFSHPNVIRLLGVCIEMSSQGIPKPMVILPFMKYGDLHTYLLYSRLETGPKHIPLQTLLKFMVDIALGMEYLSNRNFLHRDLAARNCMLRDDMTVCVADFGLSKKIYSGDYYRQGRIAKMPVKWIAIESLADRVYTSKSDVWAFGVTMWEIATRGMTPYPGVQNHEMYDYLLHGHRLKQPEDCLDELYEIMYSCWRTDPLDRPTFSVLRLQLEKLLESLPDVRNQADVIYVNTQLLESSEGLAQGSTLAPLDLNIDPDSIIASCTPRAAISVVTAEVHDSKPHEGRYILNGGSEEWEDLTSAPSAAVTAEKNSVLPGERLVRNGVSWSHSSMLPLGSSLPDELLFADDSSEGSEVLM

Point of comparison: RPLVVYPWTQR [HBB_Y36_L32P], phosphorylation enrichment 0.389. Against it:
- IGKAGYTDKVV [ENO1_Y236] — lower, 0.305
- PFRSIYFSSPK [MPG_Y75_YF] — higher, 0.463
- LNPLFYSLRNK [OR5R1_Y290_I289F] — higher, 0.395
- LARDMDDKEYY [MET_Y1230_Y1230D] — higher, 0.489
- QKMADYSNKLY [PDPR_Y104] — higher, 0.535
- ATVLNYLPKCI [A2M_Y817] — higher, 0.392
- LIGRRYDDPEV [HSPA9_Y128] — higher, 0.889
- IGERTYGQVYK [CDK13_Y716_G714R] — higher, 0.408
- ENRKYYMDLKE [PURA_Y156] — higher, 0.466
- YPPDGYSRHCE [CTNND1_Y213_Y217C] — higher, 0.505
- AVSHRYDLGGL [QPRT_Y162_A158V] — lower, 0.379
- WPLKWYVPECI [ZAP70_Y506_A507V] — lower, 0.382
- PKEQRYSFLQN [GH1_Y68_K67R] — higher, 6.49
- KLLPEYPGVLS [DHFR2_Y163] — lower, 0.385
- PDKRIYQFTAA [SKAP2_Y197] — higher, 0.999
- RASQEYHIVKK [PDZD2_Y557_S552R] — lower, 0.356
- SLQAHYDTPRS [DOK7_Y405_R402Q] — higher, 0.529
- RLDRSYSYSYS [PEAR1_Y890] — higher, 0.569
- HFPFQCHRQLF [F12_Y53_Y53C_YF] — higher, 0.885
- TKGMIYGGGGG [PSME1_Y249] — higher, 0.433
- KLVQLYDVCTK [BTK_Y461_G462D] — higher, 7.27
- KDKLPYPFDDP [GPX2_Y125_YF] — higher, 0.512
- TGNPAYRSFSN [IL4R_Y497_A492T] — lower, 0.326
- HQPGEYIFHAE [FLT3_Y416] — higher, 0.74
- ENFDDYMKDVG [FABP4_Y20_E23D] — higher, 0.52
- PRARTYCFKQE [KLHDC9_Y175_S171R_YF] — lower, 0.355
- WAFNLYDINKD [KCNIP3_Y174] — higher, 1.3
- ALLVFYAATIA [SLC20A2_Y187_P184L] — higher, 0.429
- GMKIVYVFVKK [DNAI2_Y5_E2K_YF] — higher, 1.06
- GPSTPYTKSKR [SMARCC2_Y324] — lower, 0.353
- IVAEYYDNLPH [DEGS1_Y284_A280V] — higher, 1.51
- GLAELYEYQKK [CKAP5_Y1854_K1857Q] — higher, 0.574
